Experimental findings from PMC7479153, “GFP fluorescence tagging alters dynamin-related protein 1 oligomerization dynamics and creates disassembly-refractory puncta to mediate mitochondrial fission” (Scientific Reports, 2020) are described below.

Data set [1] deals with the molecule itself. Briefly: cell-based or functional assay.
Data set [2] deals with the molecule itself. Nature of the data set: SEC-MALS; Superose 6 10/300 GL, 20 mM HEPES pH 7.5, 150 mM KCl, 1 mM DTT; loading protein concentration varied, 500 uL injected; no nucleotide. Background: SEC sorts molecules by how far they enter the pores of the column.
Data set [3] concerns the molecule itself. Nature of the data set: fluorescence correlation spectroscopy (single-point FCS); 0.5 uM fluorescently labeled protein in solution, 25 C, 20 mM HEPES pH 7.5, 150 mM KCl, 1 mM DTT; without and with 1 mM GMP-PCP and 1 mM MgCl2 (30 min); unlabeled Drp1-wt (1 uM final, 2X molar excess) added where it is the partner.
Data set [4] concerns the molecule itself. Nature of the data set: number and brightness (N&B) analysis; living transfected wt MEFs, Drp1-null MEFs and HeLa cells, 37 C; brightness normalised to that of mEGFP alone taken as the monomer; puncta on mitochondria left out.

B1: mEGFP-Drp1 (N-terminally mEGFP-tagged Drp1 isoform 3), recombinant from E. coli (natural protein, human, UniProt O00429-4 1-699, looked up)
chain: MEALIPVINKLQDVFNTVGADIIQLPQIVVVGTQSSGKSSVLESLVGRDLLPRGTGIVTRRPLILQLVHVSQEDKRKTTGEENGVEAEEWGKFLHTKNKLYTDFDEIRQEIENETERISGNNKGVSPEPIHLKIFSPNVVNLTLVDLPGMTKVPVGDQPKDIELQIRELILRFISNPNSIILAVTAANTDMATSEALKISREVDPDGRRTLAVITKLDLMDAGTDAMDVLMGRVIPVKLGIIGVVNRSQLDINNKKSVTDSIRDEYAFLQKKYPSLANRNGTKYLARTLNRLLMHHIRDCLPELKTRINVLAAQYQSLLNSYGEPVDDKSATLLQLITKFATEYCNTIEGTAKYIETSELCGGARICYIFHETFGRTLESVDPLGGLNTIDILTAIRNATGPRPALFVPEVSFELLVKRQIKRLEEPSLRCVELVHEEMQRIIQHCSNYSTQELLRFPKLHDAIVEVVTCLLRKRLPVTNEMVHNLVAIELAYINTKHPDFADACGLMNNNIEEQRRNRLARELPSAVSRDKVASGGGGVGDGVQEPTTGNWRGMLKTSKAEELLAEEKSKPIPIMPASPQKGHAVNLLDVPVPVARKLSAREQRDCEVIERLIKSYFLIVRKNIQDSVPKAVMHFLVNHVKDTLQSELVGQLYKSSLLDDLLTESEDMAQRRKEAADMLKALQGASQIIAEIRETHLW
notes: dynamin-related protein 1 (Drp1), human, isoform 3, printed length 699 aa; mEGFP is EGFP with A206K (also denoted A207K); fusion sub-cloned from pEGFP-C1 into pET28a; Monomer ~111 kDa as printed; source: E. coli (pET28a), purified to apparent homogeneity, then gel filtration (ENrich SEC 650); not shown: mEGFP, N-terminal, kept
For B1, in data set [1], the “decrease in GTP turnover (kcat) relative to Drp1-wt, basal and cardiolipin-stimulated, malachite green assay, 0.5 uM protein” value is more than 50%. In addition, the stoichiometry N (commonly a count of units in the complex or per binding partner) in data set [2] is not below 4.

B2: Drp1-BODIPY FL (Drp1 labeled on surface Cys with BODIPY-FL C1-iodoacetamide) (natural protein, human, UniProt O00429-4 1-699, looked up)
chain: MEALIPVINKLQDVFNTVGADIIQLPQIVVVGTQSSGKSSVLESLVGRDLLPRGTGIVTRRPLILQLVHVSQEDKRKTTGEENGVEAEEWGKFLHTKNKLYTDFDEIRQEIENETERISGNNKGVSPEPIHLKIFSPNVVNLTLVDLPGMTKVPVGDQPKDIELQIRELILRFISNPNSIILAVTAANTDMATSEALKISREVDPDGRRTLAVITKLDLMDAGTDAMDVLMGRVIPVKLGIIGVVNRSQLDINNKKSVTDSIRDEYAFLQKKYPSLANRNGTKYLARTLNRLLMHHIRDCLPELKTRINVLAAQYQSLLNSYGEPVDDKSATLLQLITKFATEYCNTIEGTAKYIETSELCGGARICYIFHETFGRTLESVDPLGGLNTIDILTAIRNATGPRPALFVPEVSFELLVKRQIKRLEEPSLRCVELVHEEMQRIIQHCSNYSTQELLRFPKLHDAIVEVVTCLLRKRLPVTNEMVHNLVAIELAYINTKHPDFADACGLMNNNIEEQRRNRLARELPSAVSRDKVASGGGGVGDGVQEPTTGNWRGMLKTSKAEELLAEEKSKPIPIMPASPQKGHAVNLLDVPVPVARKLSAREQRDCEVIERLIKSYFLIVRKNIQDSVPKAVMHFLVNHVKDTLQSELVGQLYKSSLLDDLLTESEDMAQRRKEAADMLKALQGASQIIAEIRETHLW
modifications: BODIPY-FL iodoacetamide on Cys; primary targets of thiol modification are surface residues C505 and C607; ~2 mol dye/mol protein
notes: dynamin-related protein 1 (Drp1), human, isoform 3, printed length 699 aa; also called BODIPY-labeled Drp1; dye-labeled Drp1; source: E. coli, purified, then labeled with thiol-reactive BODIPY-FL iodoacetamide
Turning to B2, the binding result in data set [3] was “binds”.

B3: mEGFP-Drp1 (N-terminally mEGFP-tagged Drp1 isoform 3), expressed in mammalian cells (natural protein, human, UniProt O00429-4 1-699, looked up)
chain: MEALIPVINKLQDVFNTVGADIIQLPQIVVVGTQSSGKSSVLESLVGRDLLPRGTGIVTRRPLILQLVHVSQEDKRKTTGEENGVEAEEWGKFLHTKNKLYTDFDEIRQEIENETERISGNNKGVSPEPIHLKIFSPNVVNLTLVDLPGMTKVPVGDQPKDIELQIRELILRFISNPNSIILAVTAANTDMATSEALKISREVDPDGRRTLAVITKLDLMDAGTDAMDVLMGRVIPVKLGIIGVVNRSQLDINNKKSVTDSIRDEYAFLQKKYPSLANRNGTKYLARTLNRLLMHHIRDCLPELKTRINVLAAQYQSLLNSYGEPVDDKSATLLQLITKFATEYCNTIEGTAKYIETSELCGGARICYIFHETFGRTLESVDPLGGLNTIDILTAIRNATGPRPALFVPEVSFELLVKRQIKRLEEPSLRCVELVHEEMQRIIQHCSNYSTQELLRFPKLHDAIVEVVTCLLRKRLPVTNEMVHNLVAIELAYINTKHPDFADACGLMNNNIEEQRRNRLARELPSAVSRDKVASGGGGVGDGVQEPTTGNWRGMLKTSKAEELLAEEKSKPIPIMPASPQKGHAVNLLDVPVPVARKLSAREQRDCEVIERLIKSYFLIVRKNIQDSVPKAVMHFLVNHVKDTLQSELVGQLYKSSLLDDLLTESEDMAQRRKEAADMLKALQGASQIIAEIRETHLW
notes: dynamin-related protein 1 (Drp1), human, isoform 3, printed length 699 aa; mEGFP is EGFP with A206K; In wt MEFs and HeLa cells endogenous Drp1 is also present; also called cytosolic mEGFP-Drp1; source: wt MEFs, Drp1-null MEFs and HeLa cells, transfected (pEGFP-C1), in living cells; not shown: mEGFP, N-terminal, kept
As for B3, the “stoichiometry N” value in data set [4] was approximately 4.

B4: Drp1-mEGFP (C-terminally mEGFP-tagged Drp1 isoform 3), recombinant from E. coli (natural protein, human, UniProt O00429-4 1-699, looked up)
chain: MEALIPVINKLQDVFNTVGADIIQLPQIVVVGTQSSGKSSVLESLVGRDLLPRGTGIVTRRPLILQLVHVSQEDKRKTTGEENGVEAEEWGKFLHTKNKLYTDFDEIRQEIENETERISGNNKGVSPEPIHLKIFSPNVVNLTLVDLPGMTKVPVGDQPKDIELQIRELILRFISNPNSIILAVTAANTDMATSEALKISREVDPDGRRTLAVITKLDLMDAGTDAMDVLMGRVIPVKLGIIGVVNRSQLDINNKKSVTDSIRDEYAFLQKKYPSLANRNGTKYLARTLNRLLMHHIRDCLPELKTRINVLAAQYQSLLNSYGEPVDDKSATLLQLITKFATEYCNTIEGTAKYIETSELCGGARICYIFHETFGRTLESVDPLGGLNTIDILTAIRNATGPRPALFVPEVSFELLVKRQIKRLEEPSLRCVELVHEEMQRIIQHCSNYSTQELLRFPKLHDAIVEVVTCLLRKRLPVTNEMVHNLVAIELAYINTKHPDFADACGLMNNNIEEQRRNRLARELPSAVSRDKVASGGGGVGDGVQEPTTGNWRGMLKTSKAEELLAEEKSKPIPIMPASPQKGHAVNLLDVPVPVARKLSAREQRDCEVIERLIKSYFLIVRKNIQDSVPKAVMHFLVNHVKDTLQSELVGQLYKSSLLDDLLTESEDMAQRRKEAADMLKALQGASQIIAEIRETHLW
Take B4: the “decrease in GTP turnover (kcat) relative to Drp1-wt, basal and cardiolipin-stimulated, malachite green assay, 0.5 uM protein” value in data set [1] was more than 50%.

B5: Drp1-AF488 (Drp1 labeled on surface Cys with Alexa Fluor 488 C5-maleimide) (natural protein, human, UniProt O00429-4 1-699, looked up)
chain: MEALIPVINKLQDVFNTVGADIIQLPQIVVVGTQSSGKSSVLESLVGRDLLPRGTGIVTRRPLILQLVHVSQEDKRKTTGEENGVEAEEWGKFLHTKNKLYTDFDEIRQEIENETERISGNNKGVSPEPIHLKIFSPNVVNLTLVDLPGMTKVPVGDQPKDIELQIRELILRFISNPNSIILAVTAANTDMATSEALKISREVDPDGRRTLAVITKLDLMDAGTDAMDVLMGRVIPVKLGIIGVVNRSQLDINNKKSVTDSIRDEYAFLQKKYPSLANRNGTKYLARTLNRLLMHHIRDCLPELKTRINVLAAQYQSLLNSYGEPVDDKSATLLQLITKFATEYCNTIEGTAKYIETSELCGGARICYIFHETFGRTLESVDPLGGLNTIDILTAIRNATGPRPALFVPEVSFELLVKRQIKRLEEPSLRCVELVHEEMQRIIQHCSNYSTQELLRFPKLHDAIVEVVTCLLRKRLPVTNEMVHNLVAIELAYINTKHPDFADACGLMNNNIEEQRRNRLARELPSAVSRDKVASGGGGVGDGVQEPTTGNWRGMLKTSKAEELLAEEKSKPIPIMPASPQKGHAVNLLDVPVPVARKLSAREQRDCEVIERLIKSYFLIVRKNIQDSVPKAVMHFLVNHVKDTLQSELVGQLYKSSLLDDLLTESEDMAQRRKEAADMLKALQGASQIIAEIRETHLW
modifications: AF488 maleimide on Cys; primary targets of thiol modification are surface residues C505 and C607; ~2 mol dye/mol protein
notes: dynamin-related protein 1 (Drp1), human, isoform 3, printed length 699 aa; also called AF488-labeled Drp1; dye-labeled Drp1; source: E. coli, purified, then labeled with thiol-reactive AF488 maleimide
Take B5: the binding result in data set [3] was “binds”.

B6: Drp1-wt (N-terminal 6XHis-tagged human dynamin-related protein 1, isoform 3) (natural protein, UniProt O00429-4 1-699, looked up)
chain: MEALIPVINKLQDVFNTVGADIIQLPQIVVVGTQSSGKSSVLESLVGRDLLPRGTGIVTRRPLILQLVHVSQEDKRKTTGEENGVEAEEWGKFLHTKNKLYTDFDEIRQEIENETERISGNNKGVSPEPIHLKIFSPNVVNLTLVDLPGMTKVPVGDQPKDIELQIRELILRFISNPNSIILAVTAANTDMATSEALKISREVDPDGRRTLAVITKLDLMDAGTDAMDVLMGRVIPVKLGIIGVVNRSQLDINNKKSVTDSIRDEYAFLQKKYPSLANRNGTKYLARTLNRLLMHHIRDCLPELKTRINVLAAQYQSLLNSYGEPVDDKSATLLQLITKFATEYCNTIEGTAKYIETSELCGGARICYIFHETFGRTLESVDPLGGLNTIDILTAIRNATGPRPALFVPEVSFELLVKRQIKRLEEPSLRCVELVHEEMQRIIQHCSNYSTQELLRFPKLHDAIVEVVTCLLRKRLPVTNEMVHNLVAIELAYINTKHPDFADACGLMNNNIEEQRRNRLARELPSAVSRDKVASGGGGVGDGVQEPTTGNWRGMLKTSKAEELLAEEKSKPIPIMPASPQKGHAVNLLDVPVPVARKLSAREQRDCEVIERLIKSYFLIVRKNIQDSVPKAVMHFLVNHVKDTLQSELVGQLYKSSLLDDLLTESEDMAQRRKEAADMLKALQGASQIIAEIRETHLW
notes: dynamin-related protein 1 (Drp1), human, isoform 3, printed length 699 aa; also called unlabeled Drp1-wt; native-like His-tagged Drp1; source: E. coli, purified to apparent homogeneity, then gel filtration (ENrich SEC 650)
With B6, the “stoichiometry N” value in data set [2] is not below 2.
